Data from US20220228157A1, “GENE EDITING IN DIVERSE BACTERIA” (priority 2019, published 2022).
Where two headings read alike, the source gives them in different places.

Experiments:
[1] = system: Pseudomonas aeruginosa PAO1; assay: Recombineering efficiency by selective plating; assay type: cell-based
From the text: To test the activity of PapRecT and CspRecT in these three organisms, the broad-host-range pORTMAGE system (Nyerges et al., Proc. Natl. Acad. Sci. U.S.A. 113, 2502-2507 (2016)) was built on as described above. For experiments in E. coli PapRecT or CspRecT was subcloned in place of Redβ into pORTMAGE311B (Szili et al., Antimicrob. Agents Chemother. AAC.00207-19 (2019) doi:10.1128/AAC.00207-19) (FIGS. 10A-10B; Addgene accession: #120418), which transiently disrupts MMR with EcMutL_E32K, and whose RSF1010 origin of replication and m-toluic-acid-based expression system allows the plasmid to be deployed over a broad range of bacterial hosts (Honda et al., Proc. Natl. Acad. Sci. U.S.A. 88, 179-183 (1991); Gawin et al., Microb. Biotechnol. 10, 702 (2017)). These same pORTMAGE-based constructs were used for testing in C. freundii and K. pneumoniae. […] It was found, however, that the efficiency of the plasmid construct was lower in P. aeruginosa than in the enterobacterial species that pORTMAGE was optimized for. Therefore, to increase editing efficiency in P. aeruginosa, i.) ribosomal binding sites (RBS) for PapRecT and EcMutL were optimized, ii.) EcMutL_E32K was replaced with its equivalent homologous mutant from P. aeruginosa (PaMutL_E36K), iii.) the native P. aeruginosa coding sequence for PapRecT was incorporated instead of the E. coli codon-optimized version (FIG. 13).
Virulent strains of P. aeruginosa are a frequent cause of acute infections in healthy individuals, as well as chronic infections in high-risk patients, such as those suffering from cystic fibrosis (Marvig et al., Nat. Genet. 47, 57-64 (2015)). The rate of antibiotic resistance in this species is growing, with strains adapting quickly to all clinically applied antibiotics (AbdulWahab et al., Lung India Off. Organ Indian Chest Soc. 34, 527-531 (2017); Tacconelli et al., Lancet Infect. Dis. 18, 318-327 (2018)). […] By genotyping and characterizing resistant colonies, the Minimum Inhibitory Concentration (MIC) of CIP for various resistant genotypes could be determined (Table 2, FIG. 14). […]

E. coli = assay: Allelic recombination frequency, selective vs non-selective plates; assay type: cell-based, Escherichia coli; details: RecT alone
Experimental: Four variants known to enable high genome editing efficiency were selected (Redβ and PapRecT in E. coli, LrpRecT in L. lactis, and MspRecT in M. smegmatis), and tested codon optimized versions of all four in both E. coli (gram-negative), and L. lactis (gram-positive). Genome editing efficiency was measured by introducing oligos encoding known antibiotic resistance mutations, and compared the antibiotic resistant cell counts to the total number of viable cells in the population (FIGS. 17E-17F). […] In L. lactis, LrpRecT was the only functional homolog, and improved oligo incorporation 7,700-fold, while the three other RecT variants were nearly non-functional, improving oligo incorporation less than 7-fold (FIG. 17H). No RecT protein functioned well both in E. coli and L. lactis.
A single colony of E. coli was grown overnight to saturation. In the morning 30 μL of dense culture was inoculated into 3 mL of fresh media and grown for 1 hour. To induce gene expression of the pARC8 vector for recombineering experiments, L-arabinose was added to a final concentration of 0.2% (w/v) and the cells were grown an additional hour. 1 mL of cells were pelleted at 4° C. by centrifugation at 12,000×g for 2.5 minutes and washed twice with 1 mL of ice-cold dH2O. Cells were resuspended in 50 μL ice-cold dH2O containing DNA and transferred to a pre-chilled 0.1 cm electroporation cuvette.
Electrocompetent cells were electroporated with 90-mer oligos at: 1 uM for E. coli, 50 μg for L. lactis, and 10 uM for C. crescentus. 70-mer oligos were used at 1 μg for M. smegmatis. All oligos were obtained from IDT and can be found under “Oligonucleotides for genome editing” in materials and methods. For dsDNA experiments L. lactis was electroporated with 1.5 μg purified linear dsDNA. Cells were electroporated using a Bio-Rad gene pulser set to 25 μF, 200 S2, and 1.8 kV for E. coli, 2.0 kV for L. lactis, and 1.5 kV for C. crescentus and to 1000Ω and 2.5 kV for M. smegmatis. Immediately after electroporation, cells were recovered in fresh media for 3 hours for E. coli, 1 hour for L. lactis, overnight for M. smegmatis and overnight for C. crescentus. L. lactis recovery media was supplemented with MgCl2 and CaCl2) at a concentration of 20 mM and 2 mM, respectively. E. coli recovery media was supplemented with carbenicillin. M. smegmatis recovery media was supplemented with hygromycin. C. crescentus recovery media was supplemented with 0.3% xylose and kanamycin. After recovery, the cells were serial diluted and plated on non-selective vs. selective agar plates to obtain approximately 50-500 CFU/plate. Colonies were counted using a custom script in Fiji, and allelic recombination frequency was calculated by dividing the number of colonies on selective plates, with the number of colonies on non-selective plates.

B1: Redβ: Redβ SSAP from Enterobacteria phage λ, SEQ ID NO: 474 (protein)
chain: MSTALATLAGKLAERVGMDSVDPQELITTLRQTAFKCDASDAQFIALLIVANQYGLNPWTKEIYAFPDKQNGIVPVVGVDGWSRIINENQQFDGMDFEQDNESCTCRIYRKDRNHPICVTEWMDECRREPFKTREGREITGPWQSHPKRMLRHKAMIQCARLAFGFAGIYDKDEAERIVENTAYTAERQPERDITPVNDETMQEINTLLIALDKTWDDDLLPLCSQIFRRDIRASSELTQAEAVKALGFLKQKATEQKVAA
modifications: Bacteriophage Lambda
- Editing performance in P. aeruginosa [1]: does not work
- Improvement of oligo incorporation (E. coli): 1600 fold

B2: PapRecT: SSAP from Pseudomonas aeruginosa, SEQ ID NO: 24, UniParc ID: UPI0001E9E6CB (protein, listed as Pseudomonas aeruginosa)
chain: MGTALTPLLTKFATRYEMGTTPEEVANTLKQTCFKGQVNDSQMVALLIVADQYKLNPFTKELYAFPDKNNGIVPVVGVDGWARIINENPQFDGMEFSMDQQGTECTCKIYRKDRSHAISATEYMAECKRNTQPWQSHPRRMLRHKAMIQCARLAFGFAGIYDQDEAERIVERDVTPAEQYEDVSEAICLIKDSPTMEDLQAAFSNAWKAYKTKGARDQLTAAKDQRKKELLDAPIDVEFEETGDDRAA
- Editing performance in P. aeruginosa [1]: performed the best
- Editing performance in P. aeruginosa ([1]; listed as SSAP SEQ ID NO: 24): functions at high efficiency
- Improvement of oligo incorporation (E. coli): 2700 fold
